From the supplement of paper PMC5998384 come the findings set out here.

Data set [1] deals with HeLa Kyoto. As to the kind of experiment: melting temperature (median over replicates), in situ; higher = more thermally stable.
For data set [2], the system named is HeLa Kyoto. Description: solubility in G1/S (NP-40 vs SDS abundance) (log2 ratio); higher = more soluble. The following applies: cell cycle stage: G1/S.
The subject of data set [3] is HeLa Kyoto. Description: thermal stability score vs G1/S (z-score of summed log2 fold changes over temperatures); higher = more thermally stable than in G1/S.
Data set [4] deals with HeLa Kyoto. Description: solubility change mitosis vs G1/S (difference of NP-40 vs SDS log2 ratios) (log2 ratio difference); higher = more soluble in mitosis.
The mark [5] stands for this setting: cell cycle stage: early G1 (4.5 h after nocodazole release).
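Wherever melting temperature (median over replicates), in situ is given: HeLa Kyoto cells synchronized by double thymidine or nocodazole block, proteins quantified by TMT10plex mass spectrometry, three independent biological replicates.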
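Wherever solubility change mitosis vs G1/S (difference of NP-40 vs SDS log2 ratios) is given: synchronized HeLa Kyoto cells (double thymidine block for G1/S, nocodazole release for mitosis), protein amounts in NP-40 versus SDS lysates quantified by mass spectrometry, three biological replicates.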
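Wherever solubility in G1/S (NP-40 vs SDS abundance) is given: HeLa Kyoto cells arrested at G1/S by double thymidine block, proteins quantified by TMT10plex mass spectrometry in mild NP-40 versus SDS extracts, three biological replicates.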
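Wherever thermal stability score vs G1/S (z-score of summed log2 fold changes over temperatures) is given: synchronized HeLa Kyoto cells, proteins quantified by TMT10plex mass spectrometry, three biological replicates, mitosis taken 0.5 h after nocodazole release, G1/S directly after double thymidine block.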

With “MASLEVSRSPRRSRRELEVRSPRQNKYSVLLPTYNERENLPLIVWLLVKSFSESGINYEIIIIDDGSPDGTRDVAEQLEKIYGSDRILLRPREKKLGLGTAYIHGMKHATGNYIIIMDADLSHHPKFIPEFIRKQKEGNFDIVSGTRYKGNGGVYGWDLKRKIISRGANFLTQILLRPGASDLTGSFRLYRKEVLEKLIEKCVSKGYVFQMEMIVRARQLNYTIGEVPISFVDRVYGESKLGGNEIVSFLKGLLTLFATT [DPM1]”, the melting temperature in the data set with HeLa Kyoto [1] (cell cycle stage: G1/S) was 53.2 °C; in the data set with HeLa Kyoto [1] (cell cycle stage: mitosis), 52.7 °C. For the same sequence, in the data set on HeLa Kyoto [2], the “solubility in G1/S (log2)” value is -0.0525. Besides, the thermal stability score in the data set with HeLa Kyoto [3] (setting [5]) is -2.69; in the data set with HeLa Kyoto [3] (cell cycle stage: mitosis), 1.91. Moreover, in the data set on HeLa Kyoto [4], the “solubility change mitosis (log2)” value amounted to 0.0355.
As to “MAPQSLPSSRMAPLGMLLGLLMAACFTFCLSHQNLKEFALTNPEKSSTKETERKETKAEEELDAEVLEVFHPTHEWQALQPGQAVPAGSHVRLNLQTGEREAKLQYEDKFRNNLKGKRLDINTNTYTSQDLKSALAKFKEGAEMESSKEDKARQAEVKRLFRPIEELKKDFDELNVVIETDMQIMVRLINKFNSSSSSLEEKIAALFDLEYYVHQMDNAQDLLSFGGLQVVINGLNSTEPLVKEYAAFVLGAAFSSNPKVQVEAIEGGALQKLLVILATEQPLTAKKKVLFALCSLLRHFPYAQRQFLKLGGLQVLRTLVQEKGTEVLAVRVVTLLYDLVTEKMFAEEEAELTQEMSPEKLQQYRQVHLLPGLWEQGWCEITAHLLALPEHDAREKVLQTLGVLLTTCRDRYRQDPQLGRTLASLQAEYQVLASLELQDGEDEGYFQELLGSVNSLLKELR [SIL1]”, the melting temperature in the data set with HeLa Kyoto [1] (cell cycle stage: G1/S) was determined as 53.5 °C; in the data set on HeLa Kyoto [1] (cell cycle stage: mitosis), 53.4 °C. The “solubility in G1/S (log2)” value in the data set on HeLa Kyoto [2] came out at 0.7. Also, the thermal stability score in the data set with HeLa Kyoto [3] (setting [5]) was -0.386; with HeLa Kyoto [3] (cell cycle stage: mitosis) it was 0.264. For the same sequence, the “solubility change mitosis (log2)” value in the data set on HeLa Kyoto [4] is -0.0794.
For the sequence “MVMAYFVENFWGEKNSGFDVLYHNMKHGQISTKELADFVRERATIEEAYSRSMTKLAKSASNYSQLGTFAPVWDVFKTSTEKLANCHLDLVRKLQELIKEVQKYGEEQVKSHKKTKEEVAGTLEAVQTIQSITQALQKSKENYNAKCVEQERLKKEGATQREIEKAAVKSKKATDTYKLYVEKYALAKADFEQKMTETAQKFQDIEETHLIHIKEIIGSLSNAIKEIHLQIGQVHEEFINNMANTTVESLIQKFAESKGTGKERPGLIEFEECDTASAVEGIKPRKRKTFALPGIIKKEKDAESVECPDADSLNIPDVDEEGYSIKPETNQNDTKENHFYSSSDSDSEDEEPKKYRIEIKPMHPNNSHHTMASLDELKVSIGNITLSPAISRHSPVQMNRNLSNEELTKSKPSAPPNEKGTSDLLAWDPLFGPSLDSSSSSSLTSSSSARPTTPLSVGTIVPPPRPASRPKLTSGKLSGINEIPRPFSPPVTSNTSPPPAAPLARAESSSSISSSASLSAANTPTVGVSRGPSPVSLGNQDTLPVAVALTESVNAYFKGADPTKCIVKITGDMTMSFPSGIIKVFTSNPTPAVLCFRVKNISRLEQILPNAQLVFSDPSQCDSNTKDFWMNMQAVTVYLKKLSEQNPAASYYNVDVLKYQVSSNGIQSTPLNLATYWKCSASTTDLRVDYKYNPEAMVAPSVLSNIQVVVPVDGGVTNMQSLPPAIWNAEQMKAFWKLSSISEKSENGGSGSLRAKFDLSEGPSKPTTLAVQFLSEGSTLSGVDFELVGTGYRLSLIKKRFATGRYLADC [FCHO2]”, the melting temperature in the data set with HeLa Kyoto [1] (cell cycle stage: G1/S) and in the data set with HeLa Kyoto [1] (cell cycle stage: mitosis) was 50.9 °C each time. Moreover, the “solubility in G1/S (log2)” value with HeLa Kyoto [2] was -0.0326. Moreover, the thermal stability score in the data set with HeLa Kyoto [3] (setting [5]) is -0.516; in the data set with HeLa Kyoto [3] (cell cycle stage: mitosis), 0.0307. Also, the “solubility change mitosis (log2)” value in the data set on HeLa Kyoto [4] was found to be 0.0613.
For the sequence “MSSIGTGYDLSASTFSPDGRVFQVEYAMKAVENSSTAIGIRCKDGVVFGVEKLVLSKLYEEGSNKRLFNVDRHVGMAVAGLLADARSLADIAREEASNFRSNFGYNIPLKHLADRVAMYVHAYTLYSAVRPFGCSFMLGSYSVNDGAQLYMIDPSGVSYGYWGCAIGKARQAAKTEIEKLQMKEMTCRDIVKEVAKIIYIVHDEVKDKAFELELSWVGELTNGRHEIVPKDIREEAEKYAKESLKEEDESDDDNM [PSMA3]”, the figures for the melting temperature with HeLa Kyoto [1] (cell cycle stage: G1/S) and in the data set with HeLa Kyoto [1] (cell cycle stage: mitosis) were 60.7 °C and 56.7 °C, respectively. In addition, in the data set on HeLa Kyoto [2], the “solubility in G1/S (log2)” value amounted to 0.204. The results for the thermal stability score in the data set on HeLa Kyoto [3] (setting [5]) and with HeLa Kyoto [3] (cell cycle stage: mitosis) were -2.57 and -3.19, respectively. In the data set on HeLa Kyoto [4], the “solubility change mitosis (log2)” value is -0.0697.
Turning to “MDVAESPERDPHSPEDEEQPQGLSDDDILRDSGSDQDLDGAGVRASDLEDEESAARGPSQEEEDNHSDEEDRASEPKSQDQDSEVNELSRGPTSSPCEEEGDEGEEDRTSDLRDEASSVTRELDEHELDYDEEVPEEPAPAVQEDEAEKAGAEDDEEKGEGTPREEGKAGVQSVGEKESLEAAKEKKKEDDDGEIDDGEIDDDDLEEGEVKDPSDRKVRPRPTCRFFMKGNCTWGMNCRFIHPGVNDKGNYSLITKADPFPPNGAPPLGPHPLMPANPWGGPVVDEILPPPPPEPPTESAWERGLRHAKEVLKKATIRKEQEPDFEEKRFTVTIGEDEREFDKENEVFRDWNSRIPRDVRDTVLEPYADPYYDYEIERFWRGGQYENFRVQYTETEPYHNYRERERERERENRQRERERERERDRERERRQRERERERERERDKERQRRKEEWERERAKRDEKDRQHRDRDREKEREKEKGKPKPRSPQPPSRQAEPPKKEAATTGPQVKRADEWKDPWRRSKSPKKKLGVSVSPSRARRRRKTSASSASASNSSRSSSRSSSYSGSGSSRSRSRSSSYSSYSSRSSRHSSFSGSRSRSRSFSSSPSPSPTPSPHRPSIRTKGEPAPPPGKAGEKSVKKPAPPPAPPQATKTTAPVPEPTKPGDPREARRKERPARTPPRRRTLSGSGSGSGSSYSGSSSRSRSLSVSSVSSVSSATSSSSSAHSVDSEDMYADLASPVSSASSRSPAPAQTRKEKGKSKKEDGVKEEKRKRDSSTQPPKSAKPPAGGKSSQQPSTPQQAPPGQPQQGTFVAHKEIKLTLLNKAADKGSRKRYEPSDKDRQSPPPAKRPNTSPDRGSRDRKSGGRLGSPKPERQRGQNSKAPAAPADRKRQLSPQSKSSSKVTSVPGKASDPGAASTKSGKASTLSRREELLKQLKAVEDAIARKRAKIPGKA [ZC3H18]”, the results for the melting temperature in the data set on HeLa Kyoto [1] (cell cycle stage: G1/S) and in the data set with HeLa Kyoto [1] (cell cycle stage: mitosis) were 48.7 °C and 51.3 °C, respectively. The “solubility in G1/S (log2)” value with HeLa Kyoto [2] was -0.653. The thermal stability score in the data set on HeLa Kyoto [3] (setting [5]) was 7.23; with HeLa Kyoto [3] (cell cycle stage: mitosis), 11.9. Moreover, the “solubility change mitosis (log2)” value in the data set with HeLa Kyoto [4] is 0.144.
On to “MEEASEGGGNDRVRNLQSEVEGVKNIMTQNVERILARGENLEHLRNKTEDLEATSEHFKTTSQKVARKFWWKNVKMIVLICVIVFIIILFIVLFATGAFS [VAMP8]”, for which the melting temperature turned out to be 57.8 °C with HeLa Kyoto [1] (cell cycle stage: G1/S) and 55.5 °C in the data set with HeLa Kyoto [1] (cell cycle stage: mitosis). The “solubility in G1/S (log2)” value in the data set with HeLa Kyoto [2] is -0.136. Besides, the thermal stability score with HeLa Kyoto [3] (setting [5]) was -3.17; in the data set on HeLa Kyoto [3] (cell cycle stage: mitosis), -6.62. In the data set on HeLa Kyoto [4], the “solubility change mitosis (log2)” value stood at 0.136.
